# The supplement of paper PMC9112550, “Optimization of the antimicrobial peptide Bac7 by deep mutational scanning” (BMC Biology, 2022)
# Tested on: Escherichia coli TOP10
# Test: shrunken log2 fold change of peptide-encoding DNA abundance (4.5 h post-induction vs induction); higher = less antimicrobial activity (less host growth inhibition)
# Conditions: time post-induction: 4.5 h; library: site-saturation at positions 5, 18, 19, 20
# 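Note: peptides expressed intracellularly from a pBAD plasmid library in pooled LB shake-flask culture, induced with 0.3% L-arabinose, DNA abundance read by NGS, three biological replicates, DESeq2 with apeglm shrinkage.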
row,Sequence,shrunken log2 fold change
1,RRIRDRPPRLPRPRPRPQFDPRP,-0.0102
2,RRIRDRPPRLPRPRPRPQFEPRP,0.0888
3,RRIRDRPPRLPRPRPRPQGHPRP,-0.0748
4,RRIRDRPPRLPRPRPRPQGPPRP,0.0365
5,RRIRDRPPRLPRPRPRPQHPPRP,-0.00435
6,RRIRDRPPRLPRPRPRPQIGPRP,-0.00672
7,RRIRDRPPRLPRPRPRPQKGPRP,0.00967
8,RRIRDRPPRLPRPRPRPQKHPRP,-0.108
9,RRIRDRPPRLPRPRPRPQKVPRP,-0.114
10,RRIRDRPPRLPRPRPRPQLIPRP,0.0732
11,RRIRDRPPRLPRPRPRPQMCPRP,-0.183
12,RRIRDRPPRLPRPRPRPQMFPRP,-0.0311
13,RRIRDRPPRLPRPRPRPQMLPRP,0.269
14,RRIRDRPPRLPRPRPRPQMYPRP,-0.127
15,RRIRDRPPRLPRPRPRPQQKPRP,-0.14
16,RRIRDRPPRLPRPRPRPQRCPRP,0.121
17,RRIRDRPPRLPRPRPRPQRDPRP,0.0917
18,RRIRDRPPRLPRPRPRPQRLPRP,0.116
19,RRIRDRPPRLPRPRPRPQRPPRP,0.0335
20,RRIRDRPPRLPRPRPRPQSPPRP,0.0974
21,RRIRDRPPRLPRPRPRPQTEPRP,0.125
22,RRIRDRPPRLPRPRPRPQVMPRP,0.0256
23,RRIRDRPPRLPRPRPRPQVPPRP,-0.0122
24,RRIRDRPPRLPRPRPRPQWCPRP,0.0917
25,RRIRDRPPRLPRPRPRPQWFPRP,0.0117

row,Sequence,shrunken log2 fold change
1,RRIRDRPPRLPRPRPRPQWWPRP,0.274
2,RRIRDRPPRLPRPRPRPQYCPRP,-0.207
3,RRIRDRPPRLPRPRPRPQYMPRP,0.0516
4,RRIRDRPPRLPRPRPRPRCDPRP,-0.0149
5,RRIRDRPPRLPRPRPRPRFWPRP,0.935
6,RRIRDRPPRLPRPRPRPRGRPRP,0.614
7,RRIRDRPPRLPRPRPRPRHGPRP,-0.0452
8,RRIRDRPPRLPRPRPRPRHIPRP,-0.25
9,RRIRDRPPRLPRPRPRPRHLPRP,-0.199
10,RRIRDRPPRLPRPRPRPRHMPRP,0.0599
11,RRIRDRPPRLPRPRPRPRIIPRP,-0.00686
12,RRIRDRPPRLPRPRPRPRLEPRP,0.387
13,RRIRDRPPRLPRPRPRPRLSPRP,0.286
14,RRIRDRPPRLPRPRPRPRLVPRP,0.314
15,RRIRDRPPRLPRPRPRPRMAPRP,0.465
16,RRIRDRPPRLPRPRPRPRMKPRP,0.0166
17,RRIRDRPPRLPRPRPRPRMMPRP,0.312
18,RRIRDRPPRLPRPRPRPRPMPRP,0.583
19,RRIRDRPPRLPRPRPRPRPTPRP,0.381
20,RRIRDRPPRLPRPRPRPRRCPRP,0.142
21,RRIRDRPPRLPRPRPRPRSTPRP,-0.00371
22,RRIRDRPPRLPRPRPRPRTKPRP,0.16
23,RRIRDRPPRLPRPRPRPRTWPRP,0.0224
24,RRIRDRPPRLPRPRPRPRVEPRP,0.137
25,RRIRDRPPRLPRPRPRPRVKPRP,0.103

row,Sequence,shrunken log2 fold change
1,RRIRDRPPRLPRPRPRPRVLPRP,0.173
2,RRIRDRPPRLPRPRPRPRWEPRP,-0.0171
3,RRIRDRPPRLPRPRPRPRWHPRP,0.42
4,RRIRDRPPRLPRPRPRPRYQPRP,0.204
5,RRIRDRPPRLPRPRPRPRYTPRP,-0.219
6,RRIRDRPPRLPRPRPRPSAIPRP,0.0484
7,RRIRDRPPRLPRPRPRPSEMPRP,-0.0135
8,RRIRDRPPRLPRPRPRPSFQPRP,-0.0455
9,RRIRDRPPRLPRPRPRPSGRPRP,0.124
10,RRIRDRPPRLPRPRPRPSGTPRP,-0.199
11,RRIRDRPPRLPRPRPRPSHEPRP,-0.0403
12,RRIRDRPPRLPRPRPRPSIAPRP,0.146
13,RRIRDRPPRLPRPRPRPSKQPRP,-0.257
14,RRIRDRPPRLPRPRPRPSNFPRP,-0.0206
15,RRIRDRPPRLPRPRPRPSNTPRP,-0.75
16,RRIRDRPPRLPRPRPRPSPGPRP,0.241
17,RRIRDRPPRLPRPRPRPSQGPRP,-0.0558
18,RRIRDRPPRLPRPRPRPSQNPRP,0.113
19,RRIRDRPPRLPRPRPRPSQPPRP,-0.0206
20,RRIRDRPPRLPRPRPRPSSEPRP,0.186
21,RRIRDRPPRLPRPRPRPSVGPRP,0.217
22,RRIRDRPPRLPRPRPRPSYGPRP,-0.0489
23,RRIRDRPPRLPRPRPRPSYKPRP,-0.208
24,RRIRDRPPRLPRPRPRPTAQPRP,0.0542
25,RRIRDRPPRLPRPRPRPTCLPRP,0.653
